Measured values published in patent publication US20090035321A1, “Intercellular adhesion molecules and their binding ligands” (Boehringer Ingelheim Pharmaceuticals, Inc., published 2009).

Key:
ICAM-1 S5/T (human) = ICAM-1 S5/T (human) (UniProt P05362); assay: flow, COS cells
ICAM-1 E254DE/KEK [1] = target: T1, ICAM-1 E254DE/KEK (human, UniProt P05362); assay: flow, COS cells
ICAM-1 E34/A = ICAM-1 E34/A (human, UniProt P05362); assay: flow, COS cells
ICAM-1 R49KV/EKL = ICAM-1 R49KV/EKL (human, UniProt P05362); assay: flow, COS cells
ICAM-1 Y52/F = ICAM-1 Y52/F (human, UniProt P05362); assay: flow, COS cells
ICAM-1 Y66/T = ICAM-1 Y66/T (human, UniProt P05362); assay: flow, COS cells
ICAM-1 Q73/H [2] = target: T2, ICAM-1 Q73/H (human, UniProt P05362); assay: flow, COS cells
ICAM-1 Y83/S = ICAM-1 Y83/S (human, UniProt P05362); assay: flow, COS cells
ICAM-1 R88V/EA = ICAM-1 R88V/EA (human, UniProt P05362); assay: flow, COS cells
ICAM-1 E90/Q = ICAM-1 E90/Q (human, UniProt P05362); assay: flow, COS cells
ICAM-1 E90/K = ICAM-1 E90/K (human, UniProt P05362); assay: flow, COS cells
ICAM-1 E127/R = ICAM-1 E127/R (human, UniProt P05362); assay: flow, COS cells
ICAM-1 N175/A = ICAM-1 N175/A (human, UniProt P05362); assay: flow, COS cells
ICAM-1 Y476/TAG (human) = ICAM-1 Y476/TAG (human) (UniProt P05362); assay: COS cell adhesion to purified LFA-1, no antibody
[3] = target: Intercellular Adhesion Molecule-1 (ICAM-1), wild type, on the cell surface (human) (UniProt P05362); assay: COS cell adhesion to purified LFA-1, no antibody
ICAM-1 E254DE/KEK [4] = target: T1, ICAM-1 E254DE/KEK; assay: 35S-HRV14 on COS cells
Method: (§1) COS cells were seeded into 10 cm tissue culture plates such that they would be 50% confluent by 16-24 hrs. COS cells were then washed once with TBS and incubated for 4 hrs with 4 ml RPMI containing 10% Nu sera (Collaborative) 5 pg/ml chloroquine, 3 μg of mutant plasmid and 200 μg/ml DEAE-dextran sulfate. Cells were then washed with 10% DMSO/PBS followed by PBS and cultured 16 hrs in culture media. Culture media was replaced with fresh media and at 48 hrs post transfection (OS cells were suspended by trypsin/EDTA (Gibco) treatment and divided into 2, 10 cm plates as well as 24 well tissue culture plates for HRV binding. At 72 hrs cells were harvested from 10 cm plates with 5 mM EDTA/HBSS and processed for adhesion to LFA-1 coated plastic and immunofluorescence.
(§2) Binding occurred in 1 hr at 35° C. in a 5% CO₂ atmosphere with horizontal rotation (100 rpm). Unbound [³⁵S] HRV14 was aspirated, COS cells were gently washed with 150 ml of HRV buffer and then solubilized with 1% SDS in PBS for scintillation counting.
(§3) In Table 25, the notation for the mutations uses the one-letter code for the wild-type sequence followed by a slash and the one-letter code for the corresponding mutant sequence. The position of the first amino acid within the sequence is indicated. Wild type residues precede the slash followed by the residues they were substituted for in the mutant. COS cells expressing ICAM-1 mutants were tested for adherence to LFA-1 coated plastic and for binding 35S met-labeled HRV14. […] Binding is presented as mean and standard error (SE) for multiple experiments (n). […] The specific linear fluorescence intensity (SLFI) of CL203 for each mutant is normalized to that of wild type CL203 SLFI (% WT) as discussed above. The SLFI of RR1/1, R6.5 and LB-2 SLFI is normalized to the CL203 SLFI of the mutant (% CL203) as described above.

ICAM-1 S3/T = ICAM-1 S3/T (human, UniProt P05362); assay: 35S-HRV14 on COS cells
Method: as §1, §2, §3

ICAM-1 K8/E = ICAM-1 K8/E (human, UniProt P05362); assay: 35S-HRV14 on COS cells
Method: as §1, §2, §3

ICAM-1 D26QPK/ALPE = ICAM-1 D26QPK/ALPE (human, UniProt P05362); assay: 35S-HRV14 on COS cells
Method: as §1, §2, §3

ICAM-1 Q27/L = ICAM-1 Q27/L (human, UniProt P05362); assay: 35S-HRV14 on COS cells
Method: as §1, §2, §3

ICAM-1 N48/H = ICAM-1 N48/H (human, UniProt P05362); assay: 35S-HRV14 on COS cells
Method: as §1, §2, §3

ICAM-1 E59/Q = ICAM-1 E59/Q (human, UniProt P05362); assay: 35S-HRV14 on COS cells
Method: as §1, §2, §3

ICAM-1 D71/N = ICAM-1 D71/N (human, UniProt P05362); assay: 35S-HRV14 on COS cells
Method: as §1, §2, §3

ICAM-1 Q73/H [5] = target: T2, ICAM-1 Q73/H; assay: 35S-HRV14 on COS cells
Method: as §1, §2, §3

ICAM-1 S74/A = ICAM-1 S74/A (human, UniProt P05362); assay: 35S-HRV14 on COS cells
Method: as §1, §2, §3

ICAM-1 K77T/ES = ICAM-1 K77T/ES (human, UniProt P05362); assay: 35S-HRV14 on COS cells
Method: as §1, §2, §3

ICAM-1 N118/Q = ICAM-1 N118/Q (human, UniProt P05362); assay: 35S-HRV14 on COS cells
Method: as §1, §2, §3

ICAM-1 K128/R = ICAM-1 K128/R (human, UniProt P05362); assay: 35S-HRV14 on COS cells
Method: as §1, §2, §3

ICAM-1 V136GE/GVK = ICAM-1 V136GE/GVK (human, UniProt P05362); assay: 35S-HRV14 on COS cells
Method: as §1, §2, §3

ICAM-1 H152HGA/EEGS = ICAM-1 H152HGA/EEGS (human, UniProt P05362); assay: 35S-HRV14 on COS cells
Method: as §1, §2, §3

ICAM-1 S177/G = ICAM-1 S177/G (human, UniProt P05362); assay: 35S-HRV14 on COS cells
Method: as §1, §2, §3

ICAM-1 A178/G = ICAM-1 A178/G (human, UniProt P05362); assay: 35S-HRV14 on COS cells
Method: as §1, §2, §3

In the case of monoclonal antibody CL203, the SLFI % WT (ICAM-1 S5/T (human)) is reported as 251 % WT, the SLFI % WT (ICAM-1 E254DE/KEK [1]) is reported as 180 % WT and the SLFI % WT (ICAM-1 E34/A) is reported as 132 % WT. For the same molecule, the SLFI % WT (ICAM-1 R49KV/EKL) was 233 % WT, the SLFI % WT (ICAM-1 Y52/F) was 152 % WT and the SLFI % WT (ICAM-1 Y66/T) was 144 % WT. The SLFI % WT (ICAM-1 Q73/H [2]) was 139 % WT, the SLFI % WT (ICAM-1 Y83/S) was 125 % WT and the SLFI % WT (ICAM-1 R88V/EA) was 113 % WT. The SLFI % WT (ICAM-1 E90/Q) was 152 % WT, the SLFI % WT (ICAM-1 E90/K) was 29 % WT and the SLFI % WT (ICAM-1 E127/R) was 191 % WT. It also gave an SLFI % WT (ICAM-1 N175/A) of 80 % WT.

Molecule “purified LFA-1, bound to plastic (from UniProt P20701) (receptor)” has a % of Cells Expressing ICAM-1 that Bind LFA-1 (ICAM-1 Y476/TAG (human)) of 20% and a % of Cells Expressing ICAM-1 that Bind LFA-1 [3] of 20%.

B1: human rhinovirus 14 (HRV14) (other)
chain: GAQVSTQKSGSHENQNILTNGSNQTFTVINYYKDAASTSSAGQSLSMDPSKFTEPVKDLMLKGAPALNSPNVEACGYSDRVQQITLGNSTITTQEAANAVVCYAEWPEYLPDVDASDVNKTSKPDTSVCRFYTLDSKTWTTGSKGWCWKLPDALKDMGVFGQNMFFHSLGRSGYTVHVQCNATKFHSGCLLVVVIPEHQLASHEGGNVSVKYTFTHPGERGIDLSSANEVGGPVKDVIYNMNGTLLGNLLIFPHQFINLRTNNTATIVIPYINSVPIDSMTRHNNVSLMVIPIAPLTVPTGATPSLPITVTIAPMCTEFSGIRSKSIVPQGLPTTTLPGSGQFLTTDDRQSPSALPNYEPTPRIHIPGKVHNLLEIIQVDTLIPMNNTHTKDEVNSYLIPLNANRQNEQVFGTNLFIGDGVFKTTLLGEIVQYYTHWSGSLRFSLMYTGPALSSAKLILAYTPPGARGPQDRREAMLGTHVVWDIGLQSTIVMTIPWTSGVQFRYTDPDTYTSAGFLSCWYQTSLILPPETTGQVYLLSFISACPDFKLRLMKDTQTISQTVALTEGLGDELEEVIVEKTKQTVASISSGPKHTQKVPILTANETGATMPVLPSDSIETRTTYMHFNGSETDVECFLGRAACVHVTEIQNKDATGIDNHREAKLFNDWKINLSSLVQLRKKLELFTYVRFDSEYTILATASQPDSANYSSNLVVQAMYVPPGAPNPKEWDDYTWQSASNPSVFFKVGDTSRFSVPYVGLASAYNCFYDGYSHDDAETQYGITVLNHMGSMAFRIVNEHDEHKTLVKIRVYHRAKHVEAWIPRAPRALPYTSIGRTNYPKNTEPVIKKRKGDIKSY
modifications: [35S]-Met labeled
With B1 the “HRV Binding %” value (ICAM-1 E254DE/KEK [4]) was 99 % of wild type, the “HRV Binding %” value (ICAM-1 S3/T) was 196 % of wild type and the “HRV Binding %” value (ICAM-1 K8/E) was 132 % of wild type. For the same molecule, the “HRV Binding %” value (ICAM-1 D26QPK/ALPE) was 13 % of wild type, the “HRV Binding %” value (ICAM-1 Q27/L) was 57 % of wild type and the “HRV Binding %” value (ICAM-1 N48/H) was 81 % of wild type. For the same molecule, the “HRV Binding %” value (ICAM-1 E59/Q) was 92 % of wild type, the “HRV Binding %” value (ICAM-1 D71/N) was 62 % of wild type and the “HRV Binding %” value (ICAM-1 Q73/H [5]) was 117 % of wild type. The “HRV Binding %” value (ICAM-1 S74/A) was 156 % of wild type, the “HRV Binding %” value (ICAM-1 K77T/ES) was 42 % of wild type and the “HRV Binding %” value (ICAM-1 N118/Q) was 110 % of wild type. For the same molecule, the “HRV Binding %” value (ICAM-1 K128/R) was 137 % of wild type, the “HRV Binding %” value (ICAM-1 V136GE/GVK) was 117 % of wild type and the “HRV Binding %” value (ICAM-1 H152HGA/EEGS) was 82 % of wild type. The “HRV Binding %” value (ICAM-1 S177/G) was 66 % of wild type and the “HRV Binding %” value (ICAM-1 A178/G) was 102 % of wild type.
